{"source": "patent US20180169233A1", "about": "(MOSAIC BIOMEDICALS S L, published 2018)", "binders": {"B1": {"name": "h5D8 (humanized 5D8 comprising H2 and L2) (antibody, human IgG1, kappa, V domains shown)", "VH": "QVQLQESGGGLVKPGGSLRLSCAASGFTFSHAWMHWVRQAPGKGLEWVGQIKAKSDDYATYYAESVKGRFTISRDDSKNTLYLQMNSLKTEDTAVYYCTCWEWDLDFWGQGTMVTVSS", "VL": "DIVMTQTPLSSPVTLGQPASISCRSSQSLLDSDGHTYLNWLQQRPGQPPRLLIYSVSNLESGVPDRFSGSGAGTDFTLKISRVEAEDVGVYYCMQATHAPPYTFGQGTKLEIKR"}}, "target": "human LIF (source not stated) (human, UniProt P15018 23-202)", "sequence (P15018 23-202 limits assumed)": "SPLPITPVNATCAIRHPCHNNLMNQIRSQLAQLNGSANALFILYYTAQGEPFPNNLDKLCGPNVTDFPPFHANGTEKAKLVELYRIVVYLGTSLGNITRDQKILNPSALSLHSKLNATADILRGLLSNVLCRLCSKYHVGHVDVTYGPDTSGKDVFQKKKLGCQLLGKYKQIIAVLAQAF", "test": "cell-based or functional assay"}
{"binder": "B1", "values": [{"measurement": "IC50 for biological inhibition (pSTAT3, U-251 cells, serum starved, endogenous LIF)", "value": 490, "unit": "picomolar"}]}
